Measured values reported in patent publication US20240173395A1.

Biological target: ZIKV sE-WT protein (Zika virus)
Test: SPR (BIOCORE8000), sE amine-coupled on CM5 chip, antibody as mobile phase

Substance: 2A10G6 antibody
- Kd: 9.13 nM
